# From patent publication US20220098319A1 (SHANGHAI PHARMAEXPLORER, published 2022)
# Like-named read-outs stand apart in the source and are kept apart here.
# T1: murine CD73 (on transfected CHOK1 cells) (mouse, UniProt Q61503 29-551)
# T1 construct: whole, on cells; also called CHOK1-mCD73; mCD73
# T1 sequence (looked up): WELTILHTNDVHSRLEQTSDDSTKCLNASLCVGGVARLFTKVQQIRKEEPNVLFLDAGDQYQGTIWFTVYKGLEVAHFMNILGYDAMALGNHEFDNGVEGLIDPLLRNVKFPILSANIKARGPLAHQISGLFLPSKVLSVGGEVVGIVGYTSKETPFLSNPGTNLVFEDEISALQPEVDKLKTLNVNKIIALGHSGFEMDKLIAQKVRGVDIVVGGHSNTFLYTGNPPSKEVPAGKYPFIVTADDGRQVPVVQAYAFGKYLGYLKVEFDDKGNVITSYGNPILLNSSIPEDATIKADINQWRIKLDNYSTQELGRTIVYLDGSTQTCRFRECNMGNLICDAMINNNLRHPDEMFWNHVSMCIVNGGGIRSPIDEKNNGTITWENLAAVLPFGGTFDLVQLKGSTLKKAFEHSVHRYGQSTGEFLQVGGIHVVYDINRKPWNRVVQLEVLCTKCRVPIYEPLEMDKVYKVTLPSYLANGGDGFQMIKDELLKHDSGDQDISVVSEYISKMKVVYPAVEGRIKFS
# T2: His-tagged CD73 extracellular domain protein (hCD73 ECD-His) (human, UniProt P21589 27-547)
# T2 construct: Expressed in CHO cells from pTT5-hCD73 ECD-His6, purified on nickel column; also called hCD73 ECD-His6; human CD73 ECD
# T2 sequence: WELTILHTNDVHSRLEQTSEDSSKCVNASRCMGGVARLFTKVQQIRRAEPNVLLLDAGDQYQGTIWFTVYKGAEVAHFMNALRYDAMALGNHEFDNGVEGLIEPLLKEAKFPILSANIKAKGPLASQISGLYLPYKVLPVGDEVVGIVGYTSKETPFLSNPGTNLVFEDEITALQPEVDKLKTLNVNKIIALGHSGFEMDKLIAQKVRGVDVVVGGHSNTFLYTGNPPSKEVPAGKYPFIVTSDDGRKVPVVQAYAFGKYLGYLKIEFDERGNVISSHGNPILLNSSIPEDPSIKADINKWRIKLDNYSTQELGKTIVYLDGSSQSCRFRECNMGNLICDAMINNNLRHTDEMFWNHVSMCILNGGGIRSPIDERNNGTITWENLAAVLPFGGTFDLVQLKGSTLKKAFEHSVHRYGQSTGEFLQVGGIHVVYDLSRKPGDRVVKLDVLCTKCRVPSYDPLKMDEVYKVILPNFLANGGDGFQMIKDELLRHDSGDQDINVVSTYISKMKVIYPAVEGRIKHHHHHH
# T3: human CD73 (full length, on transfected CHOK1 cells) (human, UniProt P21589 27-549)
# T3 sequence (looked up): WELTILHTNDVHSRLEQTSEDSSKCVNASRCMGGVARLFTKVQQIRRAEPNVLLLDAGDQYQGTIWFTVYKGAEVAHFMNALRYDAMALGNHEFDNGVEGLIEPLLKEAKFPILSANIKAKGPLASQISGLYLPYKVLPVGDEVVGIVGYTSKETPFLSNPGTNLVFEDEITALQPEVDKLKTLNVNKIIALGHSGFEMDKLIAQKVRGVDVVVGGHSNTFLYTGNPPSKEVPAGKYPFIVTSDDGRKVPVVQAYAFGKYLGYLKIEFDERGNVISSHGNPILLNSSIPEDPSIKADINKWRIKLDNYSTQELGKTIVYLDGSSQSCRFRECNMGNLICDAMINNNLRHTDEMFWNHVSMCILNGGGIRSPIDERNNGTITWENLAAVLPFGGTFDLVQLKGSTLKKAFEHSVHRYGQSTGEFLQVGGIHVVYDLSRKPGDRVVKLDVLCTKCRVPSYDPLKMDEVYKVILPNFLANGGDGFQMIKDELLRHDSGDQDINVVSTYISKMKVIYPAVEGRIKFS
# T4: cynomolgus monkey CD73 (on transfected CHOK1 cells) (cynomolgus monkey, UniProt A0A2K5V5U7 27-549)
# T4 construct: whole, on cells; also called CHOK1-cCD73; CHOK1-CCD73
# T4 sequence: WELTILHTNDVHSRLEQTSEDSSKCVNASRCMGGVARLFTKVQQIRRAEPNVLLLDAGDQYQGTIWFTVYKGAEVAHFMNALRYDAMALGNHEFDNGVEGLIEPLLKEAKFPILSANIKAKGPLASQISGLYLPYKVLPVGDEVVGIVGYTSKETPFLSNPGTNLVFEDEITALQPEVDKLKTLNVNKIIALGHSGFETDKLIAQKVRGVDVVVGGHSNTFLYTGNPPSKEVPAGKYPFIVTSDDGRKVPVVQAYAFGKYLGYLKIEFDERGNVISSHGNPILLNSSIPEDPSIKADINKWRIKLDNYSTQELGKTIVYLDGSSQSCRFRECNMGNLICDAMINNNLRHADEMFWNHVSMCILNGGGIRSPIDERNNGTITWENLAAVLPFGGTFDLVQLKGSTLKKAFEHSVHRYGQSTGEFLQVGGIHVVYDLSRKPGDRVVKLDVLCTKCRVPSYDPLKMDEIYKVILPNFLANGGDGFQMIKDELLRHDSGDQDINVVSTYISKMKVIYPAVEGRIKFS
# How the values were obtained:
# [1] = molecular target: T1, murine CD73 (on transfected CHOK1 cells); assay: FACS on CHOK1-mCD73 cells
# [2] = molecular target: T2, His-tagged CD73 extracellular domain …; assay: Octet BLI, antibody on AHC sensor, antigen 50-200 nM, 1:1 fit
# Source text: Octet Red 96 was selected as the test instrument, and AHC biosensor was selected as the test sensor in this experiment. Anti-human IgG Fc antibody has been immobilized on the AHC sensor, which can be used to directly capture the 15 antibodies in this experiment. Then the sensor was immersed in the analysis sample (antigen). There were five steps in this experiment: 1, Baseline (120 s) 2, Loading (capture antibody) (300 s) 3, Baseline (120 s) 4, Association (binding antigen) (180 s) 5, Dissociation (antigen dissociation) (1200 s). After the test was completed, the regeneration buffer (Glycine PH1.5) and the neutralization buffer (1*PBS buffer) were alternately immersed for 5 seconds, and the sensor was regenerated by a total of five cycles. The maximum number of sensor regeneration times is 10. The running buffer in this experiment is the sample diluent (1*PBS buffer containing 0.02% Tween20 and 0.1% BSA), that is, the buffer used in the Baseline step, the Dissociation step, and the blank analyte sample. Four sensors are used at one running in this experiment.
# Sample treatment: all the antibodies were diluted to the working concentration of 10 ug/ml with sample diluent (1*PBS buffer containing 0.02% Tween20 and 0.1% BSA), and the analyte samples (antigens) were diluted to three working concentrations: 200 nM, 100 nM and 50 nM.
# For data analysis, Octet Data Analysis (version 7.0) was used to calculate the response signal value (the signal of the coupled analyte sample minus the signal of the blank analyte sample), and a 1:1 binding model was used to fit the data.
# [3] = molecular target: T3, human CD73 (full length, on transfected …); assay: cell-based or functional assay
# [4] = molecular target: T4, cynomolgus monkey CD73 (on transfected …); assay: FACS on CHOK1-cCD73 cells
# [5] = molecular target: T3, human CD73 (full length, on transfected …); assay: FACS on CHOK1-hCD73 cells
# [6] = molecular target: T3, human CD73 (full length, on transfected …); assay: cell-based or functional assay; remark: listed apart in the source
# [7] = molecular target: T4, cynomolgus monkey CD73 (on transfected …); assay: FACS on CHOK1-cCD73 cells; remark: listed apart in the source
# [8] = molecular target: T3, human CD73 (full length, on transfected …); assay: FACS on CHOK1-hCD73 cells
# Experimental: The titration binding curve was produced by the following method:
# The CHOK1 stable cell line transfected with human CD73 was expanded to a 75-90% confluence in a T-75 cell culture flask. The medium was aspirated, washed 1-2 times with PBS, and then treated with trypsin (Tryple express: Life technology) and cells were collected. The cells were washed with PBS buffer for 1-2 times. After counted, the cells were diluted with PBS to 1-2×10⁶ cells per ml, added with 1% fetal bovine serum (FBS) blocking solution, incubated on ice for 20-30 minutes, and then washed twice with HBSS by centrifugation. The collected cells were suspended with FACS buffer (PBS+2% FBS) to 2×10⁶ cells/ml, added to a 96-well FACS reaction plate at 100 microliters per well, and centrifuged at 300 g for 5 minutes to discard the supernatant. Anti-CD73 antibody was prepared with blocking solution to an initial concentration of 10 ug/ml and serially diluted at 8 points. 100 microliter per well of that antibody sample to be tested were added and incubated at 4° C. for 1-2 hours. […] The plate was washed 2-3 times with FACS buffer by centrifugation, added with 100 μl fixative solution (4% Paraformaldehyde) per well to suspend the cells. 5-10 minutes later, it was washed 1-2 times with FACS buffer by centrifugation. The cells were suspended with 100 microliters of FACS buffer, FACS (FACSCalibur, BD) was used for detection and the results were analyzed, as shown in FIG. 1 and Table 4.
# [9] = molecular target: T1, murine CD73 (on transfected CHOK1 cells); assay: FACS on CHOK1-mCD73 cells; remark: listed apart in the source
binding result [1],Kd [2],koff [2],kon [2],"Inhibition assay of enzyme activity, IC50 [3]","Inhibition assay of enzyme activity, MAX % inhibition [3]",EC50 [4],MAX MFI fold [4],EC50 [5],MAX MFI fold [5],"Enzyme activity blocking assay, IC50 [6]","Enzyme activity blocking assay, MAX % inhibition [6]",EC50 [7],MAX MFI [7],EC50 [8],MAX MFI [8],Binder,binding result [9]
no binding,0.0751 nM,1.91e-05 s⁻¹,255000 M⁻¹ s⁻¹,0.6 nM,57.7%,0.7 nM,124 fold,1.6 nM,126 fold,,,,,,,"mab020xhIgG1TM (clone 24D6B4), mouse-human chimeric anti-CD73 antibody (antibody, V domains shown, also called mAb020 chimeric antibody) VH: EVQLQQSGPELVKPGASVKIPCKASGYTFTDYNMDWVKQRHGKSLEWIGDINPNNGGTVYNQKFKGKATLTVDKSSNTAYMELRSLTSEDTAVYYCARISGTGYWYFDVWGTGTTVTVSS VL: DIQMTQSPASLSVSVGETVTITCRASENIYSNLAWYQQKQGKSPQLLVYGATNLADGVPSRFSGSDSGTQYSLKINSLQSEDFGSYYCQHFWGTPWTFGGGTKLEIK",
no binding,0.0213 nM,6.42e-06 s⁻¹,301000 M⁻¹ s⁻¹,0.3 nM,60.6%,1.5 nM,90.2 fold,2 nM,125 fold,,,,,,,"mab036xhIgG1TM (clone 66H6C12), mouse-human chimeric anti-CD73 antibody (antibody, V domains shown, also called mAb036 chimeric antibody) VH: QVQLQQSGAEVVKPGASVKISCKASGYVFSSYWINWVKQRPGKGLEWIGKIFPGNGDTDYNGNFKGKATLTADKSSSTAYMQLSSLTSEDSAVYFCAGFADWGQGTLVTVSA VL: DIQMTQSPSSLSASLGERVSLTCRASQDIGERLIWLQQEPDGTFKRLIYATSSLDSGVPKRFSGSSSGSDYSLTISRLESEDFVDYYCLQYASSPYTFGGGTKLEIK",
,,,,,,,,,,1.2 nM,66.9%,0.7 nM,6050 MFI,2.6 nM,7660 MFI,"mAb032 (clone 56F12H8), murine anti-CD73 antibody (antibody, V domains shown, Purified from hybridoma supernatant) VH: EVQLVESGGDLVKPGGSLKLSCAASGFTFSTHGMSWVRQTPDKRLEWVAIISSDRSDIDYTDNVKGRFTISRDNGKNTLYLQMSSLKSEDTAIYHCARHRGYDGFYYAMDYWGQGTSVTVSS VL: DILMTQSPSSLTVTAGEKVTMSCRSSQSLLNSGNQKNYLTWYQQRPGRPPKLLIYWASTRISGVPDRFAGSGSGTDFTLTISIVQAEDLAVYYCQNDYSYPLTFGSGTKLELR",no binding (tested: 10 ug/ml initial concentration)

# The next lines start with the binder.
Binder,binding result [1],Kd [2],koff [2],kon [2],"Inhibition assay of enzyme activity, IC50 [3]","Inhibition assay of enzyme activity, MAX % inhibition [3]",EC50 [4],MAX MFI fold [4],EC50 [5],MAX MFI fold [5],"Enzyme activity blocking assay, IC50 [6]","Enzyme activity blocking assay, MAX % inhibition [6]",EC50 [7],MAX MFI [7],EC50 [8],MAX MFI [8],binding result [9]
"mab034xhIgG1TM (clone 60G1C8), mouse-human chimeric anti-CD73 antibody (antibody, V domains shown, also called mAb034 chimeric antibody) VH: DVQLQESGPGLVKPSQSLSLTCSVTGYSITSRYYWNWIRQFPGNKLEWMGYMTYDGTNNYNPSLTNRISITRDTSKNQFFLKLNSVTAEDTATYFCARGGWDPFDYWGQGTTLTVSS VL: DIQMTQSPAALSASVGETVTITCRASDNIYSYLAWYQQKQGKCPQLLVKNAKTLAEGVPSRFSGSGSGTQFSLRINSLQPDDFGTYYCQHYYGTPLTFGAGTKLELK",no binding,0.0577 nM,2.36e-05 s⁻¹,409000 M⁻¹ s⁻¹,0.2 nM,61.5%,> 10 nM,> 150 fold,5.7 nM,154 fold,,,,,,,
"mab032xhIgG1TM (clone 56F12H8), mouse-human chimeric anti-CD73 antibody (antibody, V domains shown, also called mAb032 chimeric antibody) VH: EVQLVESGGDLVKPGGSLKLSCAASGFTFSTHGMSWVRQTPDKRLEWVAIISSDRSDIDYTDNVKGRFTISRDNGKNTLYLQMSSLKSEDTAIYHCARHRGYDGFYYAMDYWGQGTSVTVSS VL: DILMTQSPSSLTVTAGEKVTMSCRSSQSLLNSGNQKNYLTWYQQRPGRPPKLLIYWASTRISGVPDRFAGSGSGTDFTLTISIVQAEDLAVYYCQNDYSYPLTFGSGTKLELR",no binding,0.279 nM,1.95e-05 s⁻¹,70000 M⁻¹ s⁻¹,0.3 nM,65.1%,2.6 nM,167 fold,3.2 nM,130 fold,,,,,,,
